Reference: patent US6297019, “Recombinant polynucleotides encoding CYP7 promoter-binding factors” (Tularik Inc.)

Target: T1, CPF (clone 113) (Homo sapiens)
T1 chain: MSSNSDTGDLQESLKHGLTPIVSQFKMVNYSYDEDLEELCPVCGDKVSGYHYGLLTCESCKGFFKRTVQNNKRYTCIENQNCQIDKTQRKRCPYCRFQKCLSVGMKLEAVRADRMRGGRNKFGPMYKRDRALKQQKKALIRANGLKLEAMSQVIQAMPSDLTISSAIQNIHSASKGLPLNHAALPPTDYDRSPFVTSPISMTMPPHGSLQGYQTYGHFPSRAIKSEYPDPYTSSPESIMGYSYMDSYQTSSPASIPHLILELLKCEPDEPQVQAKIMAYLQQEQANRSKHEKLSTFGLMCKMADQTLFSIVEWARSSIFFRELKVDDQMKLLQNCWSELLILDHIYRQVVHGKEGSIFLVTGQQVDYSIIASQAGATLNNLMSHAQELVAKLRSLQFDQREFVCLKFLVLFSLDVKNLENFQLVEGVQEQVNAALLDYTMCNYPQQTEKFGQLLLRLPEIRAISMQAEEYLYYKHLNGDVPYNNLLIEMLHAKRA
Test: EMSA; same DNA sequence as endogenous protein; exact probe not stated; complex disrupted by anti-CPF antibody
Settings: tags: TNT in vitro transcription/translation; label: 32P
Source text: Characterization of CPF. Clone #113 encodes a full length polypeptyde of 495 amino acids, with an in-frame stop codon 30 nucleotides upstream of the first ATG. We named the protein as CPF for CYP7 Promoter-binding Factor. […] The closest homologs of CPF are the mouse version of the family, LRH-1 (SEQ ID NOS:7, 8)and a human variant, hFTF (SEQ ID NOS:9, 10). To confirm the cloned CPF is the factor responsible for the CYP7 promoter binding activity, in vitro translated CPF was used side-by-side with the HepG2 nuclear extracts in gel shift experiments. We found in vitro translated CPF recognized the same DNA sequence as the endogenous protein does and the gel shift patterns between these two appear to be identical. Antibodies raised against a peptide containing the Ftz-F1 box were used in gel shift experiments. We found the DNA-protein complex formed either with HepG2 nuclear extracts or with in vitro translated CPF was disrupted by the specific antibody but not by preimmune serum. Furthermore, the antibody recognized a hepatic-specific cellular protein that comigrates with the in vitro translated CPF. The endogenous gene product recognized by the Ftz-F1-specific antibody is apparently hepatic specific since there is no corresponding protein in 293 cells.

B1: CYP7 promoter wild-type oligo (dsDNA)
DNA 1: TCTGATACCTGTGGACTTAGTTCAAGGCCAGTTA
DNA 2: TAACTGGCCTTGAACTAAGTCCACAGGTATCAGA
B1: binds.
